We go through two proteins from paper PMC8313675, “Molecular insights into the human ABCB6 transporter” (Cell Discovery, 2021).

Substitutions are numbered along the chain they refer to. Numbers in names are those of the source.

Data set [1] deals with the molecule itself. In words: cryo-EM structure; apo-state WT hABCB6 in POPC:POPE (3:1) MSP2N2 nanodiscs, inward-facing, C2 symmetry, 3.6 A.
Data set [2] concerns the molecule itself. Description: cryo-EM structure; hABCB6[EQ] in POPC:POPE MSP2N2 nanodiscs, incubated with 5 mM ATP-Mg2+ for 30 min at 37 C, occluded conformation, C2 symmetry, 3.5 A.

B1: human ABCB6 (hABCB6), wild type, C-terminal Strep-tag (natural protein, UniProt Q9NP58 1-842, looked up)
chain: MVTVGNYCEAEGPVGPAWMQDGLSPCFFFTLVPSTRMALGTLALVLALPCRRRERPAGADSLSWGAGPRISPYVLQLLLATLQAALPLAGLAGRVGTARGAPLPSYLLLASVLESLAGACGLWLLVVERSQARQRLAMGIWIKFRHSPGLLLLWTVAFAAENLALVSWNSPQWWWARADLGQQVQFSLWVLRYVVSGGLFVLGLWAPGLRPQSYTLQVHEEDQDVERSQVRSAAQQSTWRDFGRKLRLLSGYLWPRGSPALQLVVLICLGLMGLERALNVLVPIFYRNIVNLLTEKAPWNSLAWTVTSYVFLKFLQGGGTGSTGFVSNLRTFLWIRVQQFTSRRVELLIFSHLHELSLRWHLGRRTGEVLRIADRGTSSVTGLLSYLVFNVIPTLADIIIGIIYFSMFFNAWFGLIVFLCMSLYLTLTIVVTEWRTKFRRAMNTQENATRARAVDSLLNFETVKYYNAESYEVERYREAIIKYQGLEWKSSASLVLLNQTQNLVIGLGLLAGSLLCAYFVTEQKLQVGDYVLFGTYIIQLYMPLNWFGTYYRMIQTNFIDMENMFDLLKEETEVKDLPGAGPLRFQKGRIEFENVHFSYADGRETLQDVSFTVMPGQTLALVGPSGAGKSTILRLLFRFYDISSGCIRIDGQDISQVTQASLRSHIGVVPQDTVLFNDTIADNIRYGRVTAGNDEVEAAAQAAGIHDAIMAFPEGYRTQVGERGLKLSGGEKQRVAIARTILKAPGIILLDEATSALDTSNERAIQASLAKVCANRTTIVVAHRLSTVVNADQILVIKDGCIVERGRHEALLSRGGVYADMWQLQQGQEETSEDTKPQTMER
notes: ABCB6, Homo sapiens, 842-amino acid protein; theoretical MW 94 kDa; TMD0 (residues 1-244) is in the protein but obscure in the map; PDB and EMDB ids are assigned by the order of the data availability sentence; also called WT hABCB6; hABCB6-WT; not shown: Strep-tag, C-terminal, kept
With B1, the binding result in data set [1] is listed as “binds”.

B2: human ABCB6 E752Q mutant (hABCB6[EQ]), C-terminal Strep-tag (natural protein, UniProt Q9NP58 1-842, looked up)
chain: B1 chain with E752Q
notes: ABCB6, Homo sapiens, 842-amino acid protein, with the Walker B mutation E752Q; Same construct as m1 with E752Q; Incubated with 5 mM ATP-Mg2+ (and 20 uM PPIX) before grid preparation; PDB and EMDB ids are assigned by the order of the data availability sentence; also called hABCB6 E752Q; not shown: Strep-tag, C-terminal, kept
For the protein B2, the binding result in data set [2] is on record as “binds”.
